Experimental findings from PMC3686867, “Characterization of a Novel Putative S-Adenosylmethionine Decarboxylase-Like Protein from Leishmania donovani” (PLoS ONE, 2013) are described below.

Experiment [1] deals with T1, S-adenosylmethionine decarboxylase-like protein (ADL; putative S-adenosylmethionine decarboxylase-like proenzyme) (Leishmania donovani, UniProt E9BM59).
T1 construct: gene LdCL_300037200; 894 bp L. donovani ADL gene in pQE30, 6×His-ADL, ~33 kDa, dimer
T1 sequence (E9BM59 1-297): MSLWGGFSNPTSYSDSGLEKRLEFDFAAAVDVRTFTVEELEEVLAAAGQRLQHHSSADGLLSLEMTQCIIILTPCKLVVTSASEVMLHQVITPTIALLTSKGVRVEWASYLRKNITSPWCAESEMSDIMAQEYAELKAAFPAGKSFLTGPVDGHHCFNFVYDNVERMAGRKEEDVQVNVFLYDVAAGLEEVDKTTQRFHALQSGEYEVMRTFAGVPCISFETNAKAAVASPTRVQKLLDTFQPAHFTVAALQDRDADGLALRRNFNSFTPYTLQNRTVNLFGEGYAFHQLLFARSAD
Briefly: tryptophan fluorescence quenching titration (saturation isotherm); supported by far-UV CD. Format: binding.

Experiment [2] deals with Leishmania donovani putative S-adenosylmethionine decarboxylase-like proenzyme (ADL) (Leishmania donovani). Kind of experiment: SEC; Superdex 75 10/300; ADL 1 mg/ml; 50 mM Tris-HCl pH 7.0, 50 mM NaCl, 3 mM β-me; 25°C; calibrated with low molecular weight standards; elution at 10.4 ml, ~66 kDa. (In gel filtration, larger molecules generally elute earlier.)
The target is the same in experiment [3]. Briefly: native gel or EMSA; native polyacrylamide gel electrophoresis of purified ADL. (In general: Mobility shift assays separate free from complexed probe on a gel.)

A word on the Kd: it is the concentration at which binding is half-saturated. As usually defined, the stoichiometry N is a count of units in the complex or per binding partner.

As for `C[S+](CC[C@H](N)C(=O)[O-])C[C@H]1O[C@@H](n2cnc3c(N)ncnc32)[C@H](O)[C@@H]1O` (stereo partly drawn) [S-adenosylmethionine], the Kd in experiment [1] turned out to be 51 ± 5 µM.

Consider “Leishmania donovani putative S-adenosylmethionine decarboxylase-like proenzyme (ADL) (natural protein)”, for which the stoichiometry N in experiment [2] and in experiment [3] was 2 each time.
